The Kd is a measure of binding affinity in units of concentration. A lower Kd goes with a tighter complex. For orientation: koff means a measure of how fast the partners let go of each other. High values mean a short-lived complex, low ones a long-lived complex. One may read the kon as a measure of how fast the partners come together. A low value points to slower complex formation.

Data on 3 molecules can be found in publication PMC3476528.

Assay [1] concerns the target T1, histone H3 peptide 1-21 trimethylated on K9, biotinylated, P68431. Description: SPR; biotinylated histone H3 peptides immobilised on streptavidin sensor, CHD4 constructs injected at 100 μl/min; 25 °C; 20 mM Tris pH 7.5, 200 mM NaCl, 0.05% polysorbate 20; Kd from the steady-state response, sensorgrams when appropriate globally fitted; three repeats. In general terms: Surface plasmon resonance follows binding to a sensor surface in real time, without labels.

Assay [2] has as its target T2, histone H3 peptide 1-21 dimethylated on K9, biotinylated, P68431. The description is as above.
Assay [3] concerns the target histone H3 peptide 1-21, unmodified, biotinylated, P68431. The assay is described as above.
Assay [4] deals with T3, histone H3 peptide 1-21 monomethylated on K9, biotinylated, P68431. The description is as above.
For assay [5], the target named is T1, histone H3 peptide 1-21 trimethylated …. Description: SPR; as a1 but tPHDtCHD/ATPase injected with added ATP.
The target in assay [6] is T2, histone H3 peptide 1-21 dimethylated on …. Described as above.
Assay [7] deals with histone H3 peptide 1-21, unmodified, biotinylated, P68431. Described as above.
For assay [8], the target named is T3, histone H3 peptide 1-21 monomethylated …. The description is as above.
In assay [9] the target is T4, nucleosome core particle reconstituted from recombinant X. laevis histones and a 168 bp fragment of 601-DNA (X. laevis). Description: native gel or EMSA; 50 fmol radiolabeled mononucleosomes with increasing amounts of CHD4 constructs, 15 min on ice, 20 Tris-HCl pH 8, 200 mM NaCl, 10% sucrose; 5% native polyacrylamide gel, autoradiography. For orientation: In EMSA bound probe runs differently from free probe, usually more slowly.

In assay [10] the target is T4, nucleosome core particle reconstituted ….

Where “and” joins values, the source holds several entries; their conditions need not be identical. Equal entries are not always repeated.

B1: CHD4 tPHDtCHD/ATPase construct (minimal construct containing all three domains) (domain or fragment)
chain: YETDHQDYCEVCQQGGEIILCDTCPRAYHMVCLDPDMEKAPEGKWSCPHCEKEGIQWEAKEDNSEGEEILEEVGGDLEEEDDHHMEFCRVCKDGGELLCCDTCPSSYHIHCLNPPLPEIPNGEWLCPRCTCPALKGKVQKILIWKWGQPPSPTPVPRPPDADPNTPSPKPLEGRPERQFFVKWQGMSYWHCSWVSELQLELHCQVMFRNYQRKNDMDEPPSGDFGGDEEKSRKRKNKDPKFAEMEERFYRYGIKPEWMMIHRILNHSVDKKGHVHYLIKWRDLPYDQASWESEDVEIQDYDLFKQSYWNHRELMRGEEGRPGKKLKKVKLRKLERPPETPTVDPTVKYERQPEYLDATGGTLHPYQMEGLNWLRFSWAQGTDTILADEMGLGKTVQTAVFLYSLYKEGHSKGPFLVSAPLSTIINWEREFEMWAPDMYVVTYVGDKDSRAIIRENEFSFEDNAIRGGKKASRMKKEASVKFHVLLTSYELITIDMAILGSIDWACLIVDEAHRLKNNQSKFFRVLNGYSLQHKLLLTGTPLQNNLEELFHLLNFLTPERFHNLEGFLEEFADIAKEDQIKKLHDMLGPHMLRRLKADVFKNMPSKTELIVRVELSPMQKKYYKYILTRNFEALNARGGGNQVSLLNVVMDLKKCCNHPYLFPVAAMEAPKMPNGMYDGSALIRASGKLLLLQKMLKNLKEGGHRVLIFSQMTKMLDLLEDFLEHEGYKYERIDGGITGNMRQEAIDRFNAPGAQQFCFLLSTRAGGLGINLATADTVIIYDSDWNPHNDIQAFSRAHRIGQNKKVMIYRFVTRASVEERITQVAKKKMMLTHLVVRPGL
modifications: not checked
Consider B1, for which the Kd in [1] amounted to 2.6 µM; in [2] it was 4.7 µM; in assay [3] it was 4.1 µM; in [4], 2.9 µM; in [5], 500 nM; in assay [6] it was 1700 nM. Besides, the figures for the Kd in [7] and in assay [8] were 1400 nM and 6.9 µM, respectively. Besides, the koff in assay [1] worked out at 0.025 s⁻¹; in assay [2] it was 0.0056 s⁻¹; in [3] it was 0.0135 s⁻¹; in assay [4], 0.026 s⁻¹; in assay [5] it was 0.018 s⁻¹; in [6] it was 0.0073 s⁻¹. In addition, the off-rate (koff) in [7] worked out at 0.0265 s⁻¹. Besides, the kon in [1] came out at 1000 M⁻¹ s⁻¹; in assay [2], 1200 M⁻¹ s⁻¹; in [3], 3300 M⁻¹ s⁻¹; in assay [4], 900 M⁻¹ s⁻¹; in assay [5], 36000 M⁻¹ s⁻¹; in [6], 4300 M⁻¹ s⁻¹. This molecule also had a kon in assay [7] of 18900 M⁻¹ s⁻¹. For the same molecule, the concentration necessary for binding in assay [9] was 0.06 µM. For the same molecule, the ATPase activity (kcat, phosphate release assay) with 0.32 pmol of mono-nucleosome particles; about 6-fold stimulation in assay [10] amounted to 0.0615 s⁻¹.

B2: CHD4 tandem plant homeodomain zinc fingers (tPHD) construct (domain or fragment)
chain: YETDHQDYCEVCQQGGEIILCDTCPRAYHMVCLDPDMEKAPEGKWSCPHCEKEGIQWEAKEDNSEGEEILEEVGGDLEEEDDHHMEFCRVCKDGGELLCCDTCPSSYHIHCLNPPLPEIPNGEWLCPRCTCPALKGK
modifications: not checked
In the case of B2, the Kd in assay [1] is 70 µM and 48 µM; in assay [2], 63 µM and 51 µM; in [3], 190 µM and 188 µM; in [4], 42 µM. For the same molecule, the koff in [1] is 0.17 s⁻¹; in [2], 0.2 s⁻¹; in assay [3], 0.49 s⁻¹. Moreover, the kon in assay [1] was 3500 M⁻¹ s⁻¹; in [2], 3900 M⁻¹ s⁻¹; in assay [3], 2600 M⁻¹ s⁻¹. Also, the concentration necessary for binding in assay [9] is 10 to 20 µM.

B3: CHD4 tPHDtCHD construct (tandem PHD and tandem chromodomains) (domain or fragment)
chain: YETDHQDYCEVCQQGGEIILCDTCPRAYHMVCLDPDMEKAPEGKWSCPHCEKEGIQWEAKEDNSEGEEILEEVGGDLEEEDDHHMEFCRVCKDGGELLCCDTCPSSYHIHCLNPPLPEIPNGEWLCPRCTCPALKGKVQKILIWKWGQPPSPTPVPRPPDADPNTPSPKPLEGRPERQFFVKWQGMSYWHCSWVSELQLELHCQVMFRNYQRKNDMDEPPSGDFGGDEEKSRKRKNKDPKFAEMEERFYRYGIKPEWMMIHRILNHSVDKKGHVHYLIKWRDLPYDQASWESEDVEIQDYDLFKQSYWNHRELMRGEEGRPGKKLKKVKLRKL
modifications: not checked
Regarding B3, the Kd is 21 µM and 10 µM in assay [1]; 8.6 µM in assay [2]; 14 µM and 19 µM in [3]; 24 µM in [4]. For the same molecule, the kon in [1] was determined as 33000 M⁻¹ s⁻¹; in assay [3], 50000 M⁻¹ s⁻¹. Moreover, the koff amounted to 0.31 s⁻¹ in [2] and 0.68 s⁻¹ in assay [3]. Besides, in [9], the concentration necessary for binding amounted to 0.5 µM.
